The source of these data is article doi:10.1101/2021.07.20.453048.

Broadly, the Kd is the concentration at which binding is half-saturated.

The target in this assay is Taxol-stabilized microtubules polymerised from purified bovine brain tubulin (bovine) (UniProt Q6B856). Kind of assay: co-sedimentation.

B1: His-MBP-ENKD1 (maltose-binding protein fusion of full-length human Enkurin domain containing 1) (natural protein)
chain: MCEGPSRISGPIPPDPTLCPDNYRRPTSAQGRLEGNALKLDLLTSDRALDTTAPRGPCIGPGAGEILERGQRGVGDVLLQLEGISLGPGASLKRKDPKDHEKENLRRIREIQKRFREQERSREQGQPRPLKALWRSPKYDKVESRVKAQLQEPGPASGTESAHFLRAHSRCGPGLPPPHVSSPQPTPPGPEAKEPGLGVDFIRHNARAAKRAPRRHSCSLQVLAQVLEQQRQAQEHYNATQKGHVPHYLLERRDLWRREAEARKQSQPDPAMPPGHTRMPENQRLETLTKLLQSQSQLLRELVLLPAGADSLRAQSHRAELDRKLVQVEEAIKIFSRPKVFVKMDD
B1 showed a Kd of 160 nM.
